Results as given in PMC6061939 (Biochemical and biophysical research communications, 2017).
Values belong to the molecule of their own block, whether it stands above or below them.

Assays:
Assay in all cases: SEC
[1] = biological target: Dictyostelium discoideum Mdm12 (residues S2-N202) (Dictyostelium discoideum)
[2] = biological target: Saccharomyces cerevisiae Mmm1Δ (SMP domain) (Saccharomyces cerevisiae) (UniProt P41800)
[3] = biological target: T1, Saccharomyces cerevisiae Mmm1Δ (SMP domain) (Saccharomyces cerevisiae, UniProt P41800 194-409)
T1 sequence (looked up): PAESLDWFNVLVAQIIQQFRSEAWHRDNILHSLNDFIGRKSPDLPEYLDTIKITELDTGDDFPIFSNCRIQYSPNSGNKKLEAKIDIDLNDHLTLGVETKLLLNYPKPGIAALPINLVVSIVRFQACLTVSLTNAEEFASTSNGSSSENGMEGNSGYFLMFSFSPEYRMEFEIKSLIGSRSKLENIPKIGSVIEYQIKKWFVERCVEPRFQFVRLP

stoichiometry N [1]: 2
Molecule: Dictyostelium discoideum Mdm12 (residues S2-N202) (natural protein)

stoichiometry N [2]: 1
Molecule: Saccharomyces castellii Mdm12 (residues S2-E244) (natural protein)

stoichiometry N [3]: 1
B1: Saccharomyces cerevisiae Mdm12 (natural protein)
chain: MSFDINWSTLESDNRLNDLIRKHLNSYLQNTQLPSYVSNLRVLDFDLGKVGPAITLKEITDPLDEFYDSIREEADQETEENNDNKEDSEHICPDRTIANHEGPKDDFEAPVVMPSPNDIQFLLEVEYKGDLLVTIGADLVLNYPVEKFMTLPVKLSISDIGLHSLCIVACLSKQLFLSFLCDVSDPALDDNQTVLDPKGPILAATKPLERISIVRSMKIETEIGEQYQGQGSVLRSVGELEQFLFTIFKDFLRKELAWPSWINLDFNDGDE
